Data from publication PMC6680903 (Molecules, 2019).

B1: NB-1 modified by a 20 fold amount of NHS-Fluo (VHH)
VHH: QVQLVESGGGLVQAGGSLRLSCAASGSTLDSYYIGWFRQAPGKEREGVSCISSSGNSIRYVDSVKDRFTISRDNGKNTAYLHINSLRPEDTAVYYCAASRRGRKPGLPCSLVRERYAYWGQGTQVTVSS
notes: VHH domain as in m2 (NB-1); flexible (G4S)4 linker between the VHH domain and the 6xHis-tag, written out from the printed formula; also called labeled NB-1; modified NB-1; source: E. coli SHuffle T7, purified (HisTrap HP), then modified with NHS-Fluo (2 h, 4 °C), ultrafiltration
B2: NB-4 (VHH)
VHH: QVQLVESGGGLVEPGGSVRLSCAVSGNIVSISTVGWYRQAPGKQRELVASITGGGTTNYGDFVNGRFSIYRDNAPNRVYLHMSTLRPDDTAVYYCNARAGGSGSGSDPYDYWGVGTQVTVSS
notes: VHH domain of NB-4; flexible (G4S)4 linker between the VHH domain and the His6 tag, written out from '(G4S)4'; VHH-(G4S)4-His6; Template of the homology model: PDB 5IMK (GMQE 0.85). 'Origin' = no treatment; '0' = negative control; also called NB-4-Origin; NB-4-0; source: E. coli SHuffle T7, purified (HisTrap HP)
B3: NB-3 (VHH)
VHH: QVQLVESGGGLVQPGGSLRLSCAASGFSLDYYAIGWFRQAPGKEREGVSCISSSDDSTYYAGSVKGRFKISRDNAKSTVYLQMNSLKPEDSAVYYCAALHSGNYYYTPSYICDAEMDYWGKGTLVTVSS
notes: VHH domain of NB-3; flexible (G4S)4 linker between the VHH domain and the His6 tag, written out from '(G4S)4'; VHH-(G4S)4-His6; Template of the homology model: PDB 5J56 (GMQE 0.93). 'Origin' = no treatment; '0' = negative control; also called NB-3-Origin; NB-3-0; source: E. coli SHuffle T7, purified (HisTrap HP)
B4: NB-1 (VHH)
VHH: B1 VHH
notes: VHH domain of NB-1; flexible (G4S)4 linker between the VHH domain and the His6 tag, written out from '(G4S)4'; VHH-(G4S)4-His6; Template of the homology model: PDB 4KDT (GMQE 0.99). 'Origin' = no treatment; '0' = negative control, all physical steps of the modification without NHS-Fluo; also called NB-1-Origin; NB-1-0; source: E. coli SHuffle T7, purified (HisTrap HP)
B5: NB-2 (VHH)
VHH: QVQLVESGGGLVQHGGSLRLSCAASGSAFSTYSMTWHRQAPGKGREWVAGVDRSNSDTNYADSVKGRFTIYRDNAQNTVYLRMNSLKPEDTAVYYCSAERLDGSVRREYWGQGTQVTVSS
notes: VHH domain of NB-2; flexible (G4S)4 linker between the VHH domain and the His6 tag, written out from '(G4S)4'; VHH-(G4S)4-His6; Template of the homology model: PDB 5IML (GMQE 0.92). 'Origin' = no treatment; '0' = negative control; also called NB-2-Origin; NB-2-0; source: E. coli SHuffle T7, purified (HisTrap HP)
B6: NB-3 modified with 5 times of NHS-Fluo (VHH)
VHH: B3 VHH
notes: as the VHH domain of Dm10; flexible (G4S)4 linker between the VHH domain and the His6 tag, written out from '(G4S)4'; A mixture of isomers with different numbers and places of fluorescein; also called NB-3-5; source: E. coli SHuffle T7, purified (HisTrap HP), modified with NHS-Fluo, ultrafiltration
B7: NB-3 modified with 20 times of NHS-Fluo (VHH)
VHH: B3 VHH
notes: as the VHH domain of Dm10; flexible (G4S)4 linker between the VHH domain and the His6 tag, written out from '(G4S)4'; A mixture of isomers with different numbers and places of fluorescein; also called NB-3-20; source: E. coli SHuffle T7, purified (HisTrap HP), modified with NHS-Fluo, ultrafiltration
B8: NB-3 modified with 1 time of NHS-Fluo (VHH)
VHH: B3 VHH
notes: as the VHH domain of Dm10; flexible (G4S)4 linker between the VHH domain and the His6 tag, written out from '(G4S)4'; A mixture of isomers with different numbers and places of fluorescein; also called NB-3-1; source: E. coli SHuffle T7, purified (HisTrap HP), modified with NHS-Fluo, ultrafiltration
B9: NB-1 modified with 1 time of NHS-Fluo (VHH)
VHH: B1 VHH
notes: as the VHH domain of Dm2; flexible (G4S)4 linker between the VHH domain and the His6 tag, written out from '(G4S)4'; A mixture of isomers with different numbers and places of fluorescein, unmodified VHH among them; also called NB-1-1; source: E. coli SHuffle T7, purified (HisTrap HP), modified with NHS-Fluo, ultrafiltration
B10: NB-1 modified with 20 times of NHS-Fluo (VHH)
VHH: B1 VHH
notes: as the VHH domain of Dm2; flexible (G4S)4 linker between the VHH domain and the His6 tag, written out from '(G4S)4'; also called NB-1-20; labeled NB-1; source: E. coli SHuffle T7, purified (HisTrap HP), modified with NHS-Fluo, ultrafiltration
B11: NB-1 modified with 5 times of NHS-Fluo (VHH)
VHH: B1 VHH
notes: as the VHH domain of Dm2; flexible (G4S)4 linker between the VHH domain and the His6 tag, written out from '(G4S)4'; A mixture of isomers with different numbers and places of fluorescein; also called NB-1-5; source: E. coli SHuffle T7, purified (HisTrap HP), modified with NHS-Fluo, ultrafiltration
B12: NB-2 modified with 1 time of NHS-Fluo (VHH)
VHH: B5 VHH
notes: as the VHH domain of Dm6; flexible (G4S)4 linker between the VHH domain and the His6 tag, written out from '(G4S)4'; A mixture of isomers with different numbers and places of fluorescein; also called NB-2-1; source: E. coli SHuffle T7, purified (HisTrap HP), modified with NHS-Fluo, ultrafiltration
B13: NB-2 modified with 5 times of NHS-Fluo (VHH)
VHH: B5 VHH
notes: as the VHH domain of Dm6; flexible (G4S)4 linker between the VHH domain and the His6 tag, written out from '(G4S)4'; A mixture of isomers with different numbers and places of fluorescein; also called NB-2-5; source: E. coli SHuffle T7, purified (HisTrap HP), modified with NHS-Fluo, ultrafiltration
B14: NB-2 modified with 20 times of NHS-Fluo (VHH)
VHH: B5 VHH
notes: as the VHH domain of Dm6; flexible (G4S)4 linker between the VHH domain and the His6 tag, written out from '(G4S)4'; A mixture of isomers with different numbers and places of fluorescein; also called NB-2-20; source: E. coli SHuffle T7, purified (HisTrap HP), modified with NHS-Fluo, ultrafiltration
B15: NB-4 modified with 1 time of NHS-Fluo (VHH)
VHH: B2 VHH
B16: NB-3 (anti-β2M VHH, unmodified), VHH-(G4S)4-His6 (VHH)
VHH: B3 VHH
notes: VHH domain of NB-3; flexible (G4S)4 linker between the VHH domain and the 6xHis-tag, written out from the printed formula; Homology model built on template PDB 5J56 (GMQE 0.93), a template only; also called NB-3-origin; NB-3-0; source: E. coli SHuffle T7, purified (HisTrap HP)
B17: NB-3 modified by a 20 fold amount of NHS-Fluo (VHH)
VHH: B3 VHH
notes: VHH domain as in m6 (NB-3); flexible (G4S)4 linker between the VHH domain and the 6xHis-tag, written out from the printed formula; Heterogeneous product of random amino modification; also called modified NB-3; NB-3 20:1; source: E. coli SHuffle T7, purified (HisTrap HP), then modified with NHS-Fluo (2 h, 4 °C), ultrafiltration
B18: NB-1 (anti-β2M VHH, unmodified), VHH-(G4S)4-His6 (VHH)
VHH: B1 VHH
notes: VHH domain of NB-1; flexible (G4S)4 linker between the VHH domain and the 6xHis-tag, written out from the printed formula; Homology model built on template PDB 4KDT (GMQE 0.99); also called NB-1-origin; NB-1-0; source: E. coli SHuffle T7, purified (HisTrap HP)
B19: NB-2 (anti-β2M VHH, unmodified), VHH-(G4S)4-His6 (VHH)
VHH: B5 VHH
notes: VHH domain of NB-2; flexible (G4S)4 linker between the VHH domain and the 6xHis-tag, written out from the printed formula; Homology model built on template PDB 5IML (GMQE 0.92), a template only; also called NB-2-origin; NB-2-0; source: E. coli SHuffle T7, purified (HisTrap HP)
B20: NB-2 modified by a 20 fold amount of NHS-Fluo (VHH)
VHH: B5 VHH
notes: VHH domain as in m4 (NB-2); flexible (G4S)4 linker between the VHH domain and the 6xHis-tag, written out from the printed formula; Heterogeneous product of random amino modification; also called modified NB-2; NB-2 20:1; source: E. coli SHuffle T7, purified (HisTrap HP), then modified with NHS-Fluo (2 h, 4 °C), ultrafiltration
B21: NB-4 (anti-β2M VHH, unmodified), VHH-(G4S)4-His6 (VHH)
VHH: B2 VHH
notes: VHH domain of NB-4; flexible (G4S)4 linker between the VHH domain and the 6xHis-tag, written out from the printed formula; Homology model built on template PDB 5IMK (GMQE 0.85), a template only; also called NB-4-origin; NB-4-0; source: E. coli SHuffle T7, purified (HisTrap HP)

Each binder was assayed against T1, BSA (Bos taurus, UniProt P02769) (assay: laser scanning confocal fluorescence imaging of protein-coated beads; β2M or BSA coupled to CNBr-activated Sepharose 4 Fast Flow beads; incubated with labeled NB-1 (10 μg/mL in PBS) 5 min at room temperature; washed five times with PBS; FV1000 microscope). Details: both partners purified.
T1 construct: BSA (bovine serum albumin); also called negative control - BSA
T1 sequence (P02769 25-607): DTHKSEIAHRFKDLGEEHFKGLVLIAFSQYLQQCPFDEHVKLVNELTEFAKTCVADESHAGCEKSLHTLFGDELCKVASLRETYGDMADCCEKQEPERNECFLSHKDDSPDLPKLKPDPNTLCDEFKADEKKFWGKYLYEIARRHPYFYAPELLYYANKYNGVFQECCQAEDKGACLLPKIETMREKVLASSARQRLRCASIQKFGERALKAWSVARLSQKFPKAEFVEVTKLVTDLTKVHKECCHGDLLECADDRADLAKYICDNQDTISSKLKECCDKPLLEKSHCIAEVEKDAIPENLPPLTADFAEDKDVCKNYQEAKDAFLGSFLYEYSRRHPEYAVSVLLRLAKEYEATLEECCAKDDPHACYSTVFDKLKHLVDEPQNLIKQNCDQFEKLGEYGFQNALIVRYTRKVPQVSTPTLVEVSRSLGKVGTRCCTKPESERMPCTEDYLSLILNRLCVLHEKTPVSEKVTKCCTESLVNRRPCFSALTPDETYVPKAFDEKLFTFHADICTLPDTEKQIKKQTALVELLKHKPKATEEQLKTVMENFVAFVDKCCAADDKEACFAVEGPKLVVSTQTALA
B1: no binding (tested: 10 μg/mL).

What follows are binders tested against T2, β2-Microglobulin (Homo sapiens, UniProt P61769) (assay: SPR; Biacore T200; β2M immobilised on a CM5 chip to 150 RU; VHH samples after the modification procedure (NHS-Fluo:VHH 0, 1, 5 or 20; 2 h at 4 °C, ultrafiltration) in 2-fold serial dilution, 30 μL/min, HBS-EP+, 25 °C; 1:1 model with drift and RI2). Details: both partners purified.
T2 construct: human β2-microglobulin; Amine-coupled to a CM5 chip (150 RU); also called antigen β2M; source: expressed and purified as previously described [27]
T2 sequence (P61769 21-119): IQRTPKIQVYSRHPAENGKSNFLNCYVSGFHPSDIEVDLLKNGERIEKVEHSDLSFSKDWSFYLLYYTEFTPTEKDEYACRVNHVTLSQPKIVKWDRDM
B2 gave a Kd of 536 nM, a koff of 0.003 s⁻¹ and a kon of 5600 M⁻¹ s⁻¹.

Each binder was assayed against T2, β2-Microglobulin (assay: SPR; Biacore T200; β2M immobilised on a CM5 chip to 150 RU; VHH samples 'Origin' (no treatment) in 2-fold serial dilution, 30 μL/min, HBS-EP+, 25 °C; 1:1 model with drift and RI2). Details: both partners purified.
Binder B3 has a Kd of 525 nM, a koff of 0.00154 s⁻¹ and a kon of 2940 M⁻¹ s⁻¹.
B4 was tested, and the Kd was 61.8 nM, the koff was 0.00614 s⁻¹ and the kon was 99300 M⁻¹ s⁻¹.
Work on B5 yielded a Kd of 356 nM, a koff of 0.00218 s⁻¹ and a kon of 6120 M⁻¹ s⁻¹.

Biological target: T2, β2-Microglobulin
Assay: SPR; Biacore T200; β2M immobilised on a CM5 chip to 150 RU; VHH samples after the modification procedure (NHS-Fluo:VHH 0, 1, 5 or 20; 2 h at 4 °C, ultrafiltration) in 2-fold serial dilution, 30 μL/min, HBS-EP+, 25 °C; 1:1 model with drift and RI2
Details: both partners purified
Remark: another data set of the same source
For B3, the koff was 0.00165 s⁻¹ and the kon was 1310 M⁻¹ s⁻¹.
Binder B6 has a Kd of 6620 nM, a koff of 0.00369 s⁻¹ and a kon of 558 M⁻¹ s⁻¹.
Work on B7 yielded a koff of 0.00402 s⁻¹ and a kon of 286 M⁻¹ s⁻¹.
B8 gave a Kd of 3490 nM, a koff of 0.00297 s⁻¹ and a kon of 849 M⁻¹ s⁻¹.
In the case of B4, the koff is reported as 0.00669 s⁻¹ and the kon is reported as 48500 M⁻¹ s⁻¹.
B9 showed a Kd of 177 nM, a koff of 0.00761 s⁻¹ and a kon of 43000 M⁻¹ s⁻¹.
Binder B10 has a koff of 0.00863 s⁻¹ and a kon of 29000 M⁻¹ s⁻¹.
With B11 the Kd was 202 nM, the koff was 0.00843 s⁻¹ and the kon was 41800 M⁻¹ s⁻¹.
B5 was tested, and the koff was 0.00257 s⁻¹ and the kon was 3540 M⁻¹ s⁻¹.
B12 showed a Kd of 2530 nM, a koff of 0.00403 s⁻¹ and a kon of 1600 M⁻¹ s⁻¹.
For B13, the Kd was 9370 nM, the koff was 0.00554 s⁻¹ and the kon was 591 M⁻¹ s⁻¹.
Binder B14 has a koff of 0.00328 s⁻¹ and a kon of 77.4 M⁻¹ s⁻¹.

These binders were tested against T2, β2-Microglobulin in the same assay as above. Details: not given.
Work on B15 yielded a Kd of 26200 nM, a koff of 0.00315 s⁻¹ and a kon of 120 M⁻¹ s⁻¹.

Biological target: T2, β2-Microglobulin
Assay: SPR; Biacore T200; β2M immobilised on a CM5 chip to 150 RU; VHH samples 'Origin' (no treatment) in 2-fold serial dilution, 30 μL/min, HBS-EP+, 25 °C; 1:1 model with drift and RI2
Details: both partners purified
Remark: another data set of the same source
In the case of B2, the Kd is reported as 289 nM, the koff is reported as 0.0028 s⁻¹ and the kon is reported as 9700 M⁻¹ s⁻¹.

These binders were tested against T3, β2-Microglobulin (β2M) (Homo sapiens, UniProt P61769) (assay: SPR; Biacore T200; β2M immobilized on a CM5 chip to 150 RU; 2-fold serial diluted VHH at 30 μL/min in HBS-EP+; 25 °C; 1:1 binding model; VHH samples after incubation with NHS-Fluo at molar ratio 0 (negative control), 1, 5 or 20 and ultrafiltration). Details: both partners purified.
T3 construct: β2-microglobulin, human (the title says anti-human β2-microglobulin VHHs); Probably the mature protein without the signal peptide (surmised); also called antigen β2M; human β2-microglobulin; source: expressed and purified as previously described [27]
T3 sequence (P61769 21-119): as above
For B16, the Kd was 1260 nM and the “fold increase of KD against the sample without any treatment” value was roughly 2 fold.
In the case of B17, the Kd is reported as 14100 nM.
Binder B1 has a Kd of 297 nM.
B18 gave a Kd of 138 nM.
B19 was tested, and the Kd was 726 nM and the “fold increase of KD against the sample without any treatment” value was roughly 2 fold.
B20 showed a Kd of 42300 nM.
In the case of B21, the “fold increase of KD against the sample without any treatment” value is reported as roughly 2 fold.

The binders below were run against T3, β2-Microglobulin (β2M) (assay: SPR; Biacore T200; β2M immobilized on a CM5 chip to 150 RU; 2-fold serial diluted VHH at 30 μL/min in HBS-EP+; 25 °C; 1:1 binding model; VHH sample 'origin' without modification or other treatment). Details: both partners purified.
B18 showed a Kd of 60 nM.
